These are literature values, as cited in publication PMC3440555 (Bioconjugate chemistry, 2012).

pIC50: −log10 of the molar value.

Series [1] deals with melanocortin-1 (MC1) receptor (Mus musculus, UniProt Q01727). As to conditions: read-out: MC1 receptor binding affinity (IC50 value); B16/F1 melanoma cells.
Series [2] has as its system B16/F1 melanoma-bearing mouse. The settings on record: flank primary B16/F1 melanoma and B16/F10 pulmonary melanoma metastases; 2 h post-injection.
Series [3] concerns B16/F1 melanoma-bearing C57 mice.

Sequence of melanocortin-1 (MC1) receptor (Q01727 whole entry): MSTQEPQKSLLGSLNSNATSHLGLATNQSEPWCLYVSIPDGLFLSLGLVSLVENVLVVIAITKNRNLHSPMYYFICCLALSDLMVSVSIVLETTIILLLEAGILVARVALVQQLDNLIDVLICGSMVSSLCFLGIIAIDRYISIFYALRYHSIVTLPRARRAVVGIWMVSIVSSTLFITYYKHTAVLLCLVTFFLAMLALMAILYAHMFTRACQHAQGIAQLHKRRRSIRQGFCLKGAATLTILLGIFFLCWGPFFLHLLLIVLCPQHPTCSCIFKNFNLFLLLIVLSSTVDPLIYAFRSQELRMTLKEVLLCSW

Consider “DOTA-GGNle-CycMSHhex: non-radiolabeled DOTA-conjugated lactam bridge-cyclized alpha-MSH peptide, DOTA-Gly-Gly-Nle-c[Asp-His-DPhe-Arg-Trp-Lys]-CONH2”, for which the pIC50 (as a rule, the IC50 on a negative log10 scale, so that one unit is a factor of ten) in series [1] is 8.68.
For the substance “^67Ga-DOTA-Gly-Glu-c[Lys-Nle-Glu-His-DPhe-Arg-Trp-Gly-Arg-Pro-Val-Asp] [^67Ga-DOTA-GlyGlu-CycMSH]”, the “Visualization of melanoma by SPECT/CT” value in series [2] was “clearly visualized”. Besides, in series [3] (2 h post-injection, melanoma uptake not affected), the “Decrease of renal uptake by L-lysine co-injection” value is reported as 69.8%. In addition, in series [3] (mouse, in vivo, 2 h), the Renal uptake is 27.55 ± 7.87 %ID/g and the Tumor uptake was 12.93 ± 1.63 %ID/g.
